Laboratory results: patent US20220211812A1 (Bristol-Myers Squibb, published 2022)

B1: AQ1-GGGGS-Glu^γ-C15-COOH (ligand)
chain 1: XLYSALANKCCHVGCTKRSLARFC
chain 2: ASWMEEVIKLCGRELVRAQIAICGMSTWS
peptide: GGGGSE
modifications: not fully specified; Glu^γ bonded by amide to fatty acid -C15-COOH; oxime-linked to pAcF of the A chain; pAcF (para-acetyl-L-phenylalanine) at position 1, oxime-linked to PK enhancer GGGGS-Glu^γ-C15-COOH
B2: AQ1-Compound 39 (ligand)
chain 1: XLYSALANKCCHVGCTKRSLARFC
chain 2: ASWMEEVIKLCGRELVRAQIAICGMSTWS
modifications: pAcF (para-acetyl-L-phenylalanine) at position 1, oxime-linked to Compound 39 ((S)-1-(aminooxy)-33-carboxy-4,7,17,27,35-pentaoxo-11,14,21,24-tetraoxa-3,8,18,28,34-pentaazadopentacontan-52-oic acid)
B3: AQ1-GSHHHHHGS-Glu^γ-C13-COOH (ligand)
chain 1: XLYSALANKCCHVGCTKRSLARFC
chain 2: ASWMEEVIKLCGRELVRAQIAICGMSTWS
peptide: GSHHHHHGSE
modifications: not fully specified; Glu^γ bonded by amide to fatty acid -C13-COOH; oxime-linked to pAcF of the A chain; pAcF (para-acetyl-L-phenylalanine) at position 1, oxime-linked to PK enhancer GSHHHHHGS-Glu^γ-C13-COOH
B4: AQ1-EEEGGG-Glu^γ-C17-COOH (ligand)
chain 1: XLYSALANKCCHVGCTKRSLARFC
chain 2: ASWMEEVIKLCGRELVRAQIAICGMSTWS
peptide: EEEGGGE
modifications: not fully specified; Glu^γ bonded by amide to fatty acid -C17-COOH; oxime-linked to pAcF of the A chain; pAcF (para-acetyl-L-phenylalanine) at position 1, oxime-linked to PK enhancer EEEGGG-Glu^γ-C17-COOH
B5: AQ1-KKKGGG-Glu^γ-C13-COOH (ligand)
chain 1: XLYSALANKCCHVGCTKRSLARFC
chain 2: ASWMEEVIKLCGRELVRAQIAICGMSTWS
peptide: KKKGGGE
modifications: not fully specified; Glu^γ bonded by amide to fatty acid -C13-COOH; oxime-linked to pAcF of the A chain; pAcF (para-acetyl-L-phenylalanine) at position 1, oxime-linked to PK enhancer KKKGGG-Glu^γ-C13-COOH
B6: AQ1-GETGSSGEGT-Glu^γ-C13-COOH (ligand)
chain 1: XLYSALANKCCHVGCTKRSLARFC
chain 2: ASWMEEVIKLCGRELVRAQIAICGMSTWS
peptide: GETGSSGEGTE
modifications: not fully specified; Glu^γ bonded by amide to fatty acid -C13-COOH; oxime-linked to pAcF of the A chain; pAcF (para-acetyl-L-phenylalanine) at position 1, oxime-linked to PK enhancer GETGSSGEGT-Glu^γ-C13-COOH
B7: AQ1-EEEGGG-dGlu^γ-C13-COOH (ligand)
chain 1: XLYSALANKCCHVGCTKRSLARFC
chain 2: ASWMEEVIKLCGRELVRAQIAICGMSTWS
peptide: EEEGGGE
modifications: not fully specified; dGlu^γ = D-glutamic acid (gamma), linked to fatty acid -C13-COOH; oxime-linked to pAcF of the A chain; pAcF (para-acetyl-L-phenylalanine) at position 1, oxime-linked to PK enhancer EEEGGG-dGlu^γ-C13-COOH
B8: AQ1-KKSAGSAG-Glu^γ-C13-COOH (ligand)
chain 1: XLYSALANKCCHVGCTKRSLARFC
chain 2: ASWMEEVIKLCGRELVRAQIAICGMSTWS
peptide: KKSAGSAGE
modifications: not fully specified; Glu^γ bonded by amide to fatty acid -C13-COOH; oxime-linked to pAcF of the A chain; pAcF (para-acetyl-L-phenylalanine) at position 1, oxime-linked to PK enhancer KKSAGSAG-Glu^γ-C13-COOH
B9: AQ1-GGGEEE-Glu^γ-C13-COOH (ligand)
chain 1: XLYSALANKCCHVGCTKRSLARFC
chain 2: ASWMEEVIKLCGRELVRAQIAICGMSTWS
peptide: GGGEEEE
modifications: not fully specified; Glu^γ bonded by amide to fatty acid -C13-COOH; oxime-linked to pAcF of the A chain; pAcF (para-acetyl-L-phenylalanine) at position 1, oxime-linked to PK enhancer GGGEEE-Glu^γ-C13-COOH
B10: AQ1-KKKSGGSGG-Glu^γ-C13-COOH (ligand)
chain 1: XLYSALANKCCHVGCTKRSLARFC
chain 2: ASWMEEVIKLCGRELVRAQIAICGMSTWS
peptide: KKKSGGSGGE
modifications: not fully specified; Glu^γ bonded by amide to fatty acid -C13-COOH; oxime-linked to pAcF of the A chain; pAcF (para-acetyl-L-phenylalanine) at position 1, oxime-linked to PK enhancer KKKSGGSGG-Glu^γ-C13-COOH
B11: AQ1-EGGGGSK-Glu^γ-C13-COOH (ligand)
chain 1: XLYSALANKCCHVGCTKRSLARFC
chain 2: ASWMEEVIKLCGRELVRAQIAICGMSTWS
peptide: EGGGGSKE
modifications: not fully specified; Glu^γ bonded by amide to fatty acid -C13-COOH; oxime-linked to pAcF of the A chain; pAcF (para-acetyl-L-phenylalanine) at position 1, oxime-linked to PK enhancer EGGGGSK-Glu^γ-C13-COOH
B12: AQ1-GGGGS-Glu^γ-C13-COOH (ligand)
chain 1: XLYSALANKCCHVGCTKRSLARFC
chain 2: ASWMEEVIKLCGRELVRAQIAICGMSTWS
peptide: GGGGSE
modifications: not fully specified; Glu^γ bonded by amide to fatty acid -C13-COOH; oxime-linked to pAcF of the A chain; pAcF (para-acetyl-L-phenylalanine) at position 1, oxime-linked to PK enhancer GGGGS-Glu^γ-C13-COOH
B13: AQ1-KKSGGSGG-Glu^γ-C13-COOH (ligand)
chain 1: XLYSALANKCCHVGCTKRSLARFC
chain 2: ASWMEEVIKLCGRELVRAQIAICGMSTWS
peptide: KKSGGSGGE
modifications: not fully specified; Glu^γ bonded by amide to fatty acid -C13-COOH; oxime-linked to pAcF of the A chain; pAcF (para-acetyl-L-phenylalanine) at position 1, oxime-linked to PK enhancer KKSGGSGG-Glu^γ-C13-COOH
B14: AQ1-EEEEPEEEEPEEEEPEEEE-Glu^γ-C14-CH3 (ligand)
chain 1: XLYSALANKCCHVGCTKRSLARFC
chain 2: ASWMEEVIKLCGRELVRAQIAICGMSTWS
peptide: EEEEPEEEEPEEEEPEEEEE
modifications: not fully specified; Glu^γ bonded by amide to fatty acid -C14-CH3; oxime-linked to pAcF of the A chain; pAcF (para-acetyl-L-phenylalanine) at position 1, oxime-linked to PK enhancer EEEEPEEEEPEEEEPEEEE-Glu^γ-C14-CH3
B15: AQ1-EEEGGG-Glu^γ-C15-COOH (ligand)
chain 1: XLYSALANKCCHVGCTKRSLARFC
chain 2: ASWMEEVIKLCGRELVRAQIAICGMSTWS
peptide: EEEGGGE
modifications: not fully specified; Glu^γ bonded by amide to fatty acid -C15-COOH; oxime-linked to pAcF of the A chain; pAcF (para-acetyl-L-phenylalanine) at position 1, oxime-linked to PK enhancer EEEGGG-Glu^γ-C15-COOH
B16: AQ1-EESGGSGG-Glu^γ-C13-COOH (ligand)
chain 1: XLYSALANKCCHVGCTKRSLARFC
chain 2: ASWMEEVIKLCGRELVRAQIAICGMSTWS
peptide: EESGGSGGE
modifications: not fully specified; Glu^γ bonded by amide to fatty acid -C13-COOH; oxime-linked to pAcF of the A chain; pAcF (para-acetyl-L-phenylalanine) at position 1, oxime-linked to PK enhancer EESGGSGG-Glu^γ-C13-COOH
B17: AQ1-EEEEPEEEEPEEEEPEEEE-Glu^γ-C15-CH3 (ligand)
chain 1: XLYSALANKCCHVGCTKRSLARFC
chain 2: ASWMEEVIKLCGRELVRAQIAICGMSTWS
peptide: EEEEPEEEEPEEEEPEEEEE
modifications: not fully specified; Glu^γ bonded by amide to fatty acid -C15-CH3; oxime-linked to pAcF of the A chain; pAcF (para-acetyl-L-phenylalanine) at position 1, oxime-linked to PK enhancer EEEEPEEEEPEEEEPEEEE-Glu^γ-C15-CH3
B18: AQ1-DRDDRD-C13-COOH (ligand)
chain 1: XLYSALANKCCHVGCTKRSLARFC
chain 2: ASWMEEVIKLCGRELVRAQIAICGMSTWS
peptide: DRDDRD
modifications: linked to fatty acid -C13-COOH; oxime-linked to pAcF of the A chain; pAcF (para-acetyl-L-phenylalanine) at position 1, oxime-linked to PK enhancer DRDDRD-C13-COOH
B19: AQ1-GGGKKK-Glu^γ-C13-COOH (ligand)
chain 1: XLYSALANKCCHVGCTKRSLARFC
chain 2: ASWMEEVIKLCGRELVRAQIAICGMSTWS
peptide: GGGKKKE
modifications: not fully specified; Glu^γ bonded by amide to fatty acid -C13-COOH; oxime-linked to pAcF of the A chain; pAcF (para-acetyl-L-phenylalanine) at position 1, oxime-linked to PK enhancer GGGKKK-Glu^γ-C13-COOH
B20: AQ1-KSGGSGG-Glu^γ-C13-COOH (ligand)
chain 1: XLYSALANKCCHVGCTKRSLARFC
chain 2: ASWMEEVIKLCGRELVRAQIAICGMSTWS
peptide: KSGGSGGE
modifications: not fully specified; Glu^γ bonded by amide to fatty acid -C13-COOH; oxime-linked to pAcF of the A chain; pAcF (para-acetyl-L-phenylalanine) at position 1, oxime-linked to PK enhancer KSGGSGG-Glu^γ-C13-COOH

Target: T1, human RXFP1 receptor (human, UniProt Q9HBX9 1-757)
T1 sequence (looked up): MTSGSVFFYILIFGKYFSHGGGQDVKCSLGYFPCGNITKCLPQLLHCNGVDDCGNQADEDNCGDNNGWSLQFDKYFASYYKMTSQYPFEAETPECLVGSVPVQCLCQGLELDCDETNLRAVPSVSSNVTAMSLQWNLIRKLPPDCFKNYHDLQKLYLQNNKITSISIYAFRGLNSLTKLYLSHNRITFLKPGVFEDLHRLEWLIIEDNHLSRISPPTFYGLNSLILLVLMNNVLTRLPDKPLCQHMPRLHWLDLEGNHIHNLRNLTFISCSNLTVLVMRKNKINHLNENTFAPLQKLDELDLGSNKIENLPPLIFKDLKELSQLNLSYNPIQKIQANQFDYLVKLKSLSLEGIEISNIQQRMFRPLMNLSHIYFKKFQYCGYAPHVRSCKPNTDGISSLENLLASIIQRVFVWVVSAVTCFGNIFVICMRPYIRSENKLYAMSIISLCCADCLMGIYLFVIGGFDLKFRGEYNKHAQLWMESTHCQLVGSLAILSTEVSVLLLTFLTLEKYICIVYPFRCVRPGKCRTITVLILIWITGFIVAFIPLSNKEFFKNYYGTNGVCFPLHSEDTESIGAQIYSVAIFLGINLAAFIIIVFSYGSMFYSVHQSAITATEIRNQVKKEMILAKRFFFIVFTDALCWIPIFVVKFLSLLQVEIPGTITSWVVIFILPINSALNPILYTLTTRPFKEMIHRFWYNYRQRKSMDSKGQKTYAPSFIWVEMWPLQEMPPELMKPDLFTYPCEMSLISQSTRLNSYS
Assay: cell-based or functional assay

| Binder | hRXFP1/CHO-K1 cAMP EC50 (nM, avg) |
| --- | --- |
| B1 | 1.55 nM |
| B2 | 2.23 nM |
| B3 | 0.28 nM |
| B4 | 10.5 nM |
| B5 | 0.09 nM |
| B6 | 0.65 nM |
| B7 | 1.91 nM |
| B8 | 0.27 nM |
| B9 | 0.22 nM |
| B10 | 0.14 nM |
| B11 | 0.31 nM |
| B12 | 0.14 nM |
| B13 | 0.34 nM |
| B14 | 0.33 nM |
| B15 | 5.26 nM |
| B16 | 0.83 nM |
| B17 | 0.34 nM |
| B18 | 0.32 nM |
| B19 | 0.19 nM |
| B20 | 0.24 nM |
